# Test results from patent publication US9383360B2, “Compositions and methods relating to lyme disease” (The United States of America, as represented by the …, priority 2012, dated 2016).
# Tests used:
# [1] = target: Neurocan (Homo sapiens, UniProt O14594); experiment: BbHtrA proteolysis assay, neurocan substrate; format: biochemical; details: SDS-PAGE, FIG. 5
# Procedure: (§1) For proteolysis assays described in Examples herein, purified protein substrates (200-600 nM) and proteases (100-150 nM) were diluted in assay buffer (50 mM HEPES, pH 7.4, 5 mM CaCl2) and incubated overnight at 37° C. Samples were boiled for 4 minutes to inactivate the proteases. Proteoglycans were deglycosylated by overnight incubation at 37° C. with 0.01 U chondroitinase ABC (Seikagaku). Reactions were stopped by the addition of SDS/PAGE sample buffer, boiled for 4 minutes, and electrophoresed on pre-cast Tris-glycine gels (BioRad). Reaction products were visualized by silver staining.
# (§2) Purified proteins were incubated with BbHtrA or BbHtrA^S226A as described herein. HtrA (also known as DegP) proteases belong to the family of serine proteases which contain a highly reactive serine residue in their active site. This serine (Ser210 in DegP) is part of the canonical His-Ser-Asp catalytic triad and mutation of the catalytic serine abolishes proteolytic activity (Skorko-Glonek et al., 1995). In BbHtrA, residues His119, Ser226 and Asp149 form the catalytic triad and mutation of serine 226 to alanine abolished proteolytic activity as expected (FIG. 5).
# Reaction products were separated by SDS-PAGE and silver stained. Native collagen II and recombinant tenascin C were not degraded by BbHtrA indicating selectivity for proteoglycans, E-cadherin and fibronectin. […]
# [2] = test system: Aggrecan; experiment: BbHtrA proteolysis assay, aggrecan substrate; format: biochemical, bovine, human; details: SDS-PAGE
# Procedure: as §1
# BbHtrA cleaved recombinant human aggrecan (G1-IGD-G2 domains) within the IGD (FIG. 4A). Cleavage of recombinant aggrecan generated three high molecular weight proteolytic fragments which migrated at ˜110 kd, ˜60 kd and ˜50 kd.
# BbHtrA also degraded native, fully glycosylated aggrecan (FIG. 4B, lane 5). Again, this degradation required BbHtrA catalytic activity (FIG. 4B, lane 6). The BbHtrA-generated aggrecan fragments appear to be a doublet, unlike those generated by HtrA1.
# as §2
# Reaction products were separated by SDS-PAGE and silver stained. Native collagen II and recombinant tenascin C were not degraded by BbHtrA indicating selectivity for proteoglycans, E-cadherin and fibronectin. FIG. 5 is an image of SDS-PAGE analysis showing that BbHtrA degrades aggrecan, neurocan, versican, brevican, biglycan, decorin, E-cadherin, and casein.
# Sequence of Neurocan (O14594 23-1321): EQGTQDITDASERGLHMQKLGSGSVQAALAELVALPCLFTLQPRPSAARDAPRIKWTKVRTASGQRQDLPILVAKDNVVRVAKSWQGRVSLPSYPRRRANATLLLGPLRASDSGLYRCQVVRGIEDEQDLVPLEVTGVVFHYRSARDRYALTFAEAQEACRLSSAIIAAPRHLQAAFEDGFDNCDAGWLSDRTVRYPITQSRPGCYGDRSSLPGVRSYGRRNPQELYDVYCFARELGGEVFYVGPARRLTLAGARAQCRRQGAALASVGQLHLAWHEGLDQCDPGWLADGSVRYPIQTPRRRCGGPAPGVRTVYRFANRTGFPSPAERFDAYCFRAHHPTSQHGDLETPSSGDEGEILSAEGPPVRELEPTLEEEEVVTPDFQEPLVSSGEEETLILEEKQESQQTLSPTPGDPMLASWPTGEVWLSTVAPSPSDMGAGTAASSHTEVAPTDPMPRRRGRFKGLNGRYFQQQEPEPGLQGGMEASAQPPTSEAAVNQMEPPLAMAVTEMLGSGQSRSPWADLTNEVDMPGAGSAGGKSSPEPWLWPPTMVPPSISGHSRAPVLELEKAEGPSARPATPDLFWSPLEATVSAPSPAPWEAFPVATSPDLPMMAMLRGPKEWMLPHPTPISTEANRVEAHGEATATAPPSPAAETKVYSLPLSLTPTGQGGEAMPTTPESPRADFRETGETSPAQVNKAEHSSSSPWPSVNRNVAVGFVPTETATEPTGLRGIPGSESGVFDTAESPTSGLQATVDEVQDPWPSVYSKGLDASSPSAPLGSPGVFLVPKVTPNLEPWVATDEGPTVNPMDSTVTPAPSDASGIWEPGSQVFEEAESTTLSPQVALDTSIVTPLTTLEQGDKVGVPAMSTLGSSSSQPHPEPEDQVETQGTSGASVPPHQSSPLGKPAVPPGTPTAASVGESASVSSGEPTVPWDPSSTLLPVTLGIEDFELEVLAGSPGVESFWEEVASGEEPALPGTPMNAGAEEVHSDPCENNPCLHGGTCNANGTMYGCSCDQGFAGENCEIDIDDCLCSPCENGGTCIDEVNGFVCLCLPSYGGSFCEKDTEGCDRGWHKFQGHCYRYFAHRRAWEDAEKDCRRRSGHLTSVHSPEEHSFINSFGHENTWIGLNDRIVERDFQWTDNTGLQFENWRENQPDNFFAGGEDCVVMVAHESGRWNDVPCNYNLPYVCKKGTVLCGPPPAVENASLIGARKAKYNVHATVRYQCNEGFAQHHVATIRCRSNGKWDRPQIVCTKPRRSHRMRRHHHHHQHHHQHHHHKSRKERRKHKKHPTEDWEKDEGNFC
molecule,measurement,setting,value
"BbHtrA: Recombinant wild type B. burgdorferi HtrA serine protease, mature protein amino acids 38-474, expressed in E. coli (SEQ ID NO:1, 9) (protein, listed as Borrelia burgdorferi) EEKDNTVRALQDSFREVSKKILPSSVEVHATGVIKQSFPIPFFFFDMPEFDSERKSNWAGSGVIIGRDSQKKSLFYVVTNSHVVDKATELEVVSYDKKKHKAKLIGKDEKKDIALISFESDDATIKVADLGDSDKLEIGDWVMAVGSPFQFSFTVTAGIVSGLQRSANPNLQSRNLFIQTDAAINRGNSGGPLVNIKGEVIGINAWIASNSGGNIGLGFAIPVNNIKSTVDFFLKGKKIESAWLGISFYPLKTRDSEVLKSLGVESNDVSAAIIASLYPGSPAVKSGLRAGDIIMKVNGVSMSVFQDVTSYISDFYAGEKVNVEILRGNVKKNIEIVLAVRPKDKELSSSKMLPGFVVYPLVEDIKAQLNLRNWIKGVVVDYIDKNLASNIKMKSGDVILSVNSKSVSNLREFYDALEVGKNTYKILRGNDSFKITF",Degradation of neurocan,[1],degrades
same,Degradation of aggrecan,[2]; FIG. 5,degrades
same,Cleavage of recombinant human aggrecan (G1-IGD-G2 domains) within the IGD,"[2]; silver stain, FIG. 4A",cleaved
